# Results reported in patent publication US20180334496A1 (KODIAK SCIENCES, published 2018).
# Tests used:
# [1] = target: T1, human complement factor D purified from serum (human, UniProt P00746 26-253); experiment: Biacore, protein A capture
# T1 construct: serum-purified (CompTech); also called hCFD-Comptech; CFD
# [2] = target: T2, serum purified human Complement Factor D (human, UniProt P00746 26-253); experiment: SPR Biacore, antibody on protein A chip, single cycle kinetics, 37 C
# T2 construct: Serum purified protein flowed over the captured antibodies; also called CFD; human CFD
# [3] = target: T2, serum purified human Complement Factor D; experiment: SPR Biacore, antibody on protein A chip, single cycle kinetics, 25 C
# [4] = target: T2, serum purified human Complement Factor D; experiment: as above; remark: listed apart in the source
# [5] = target: T2, serum purified human Complement Factor D; experiment: SPR Biacore, antibody on protein A chip, single cycle kinetics, 37 C; remark: listed apart in the source
# [6] = target: T1, human complement factor D purified from …; experiment: SPR MX96
# [7] = target: T3, recombinant human CFD, His-tagged (human, UniProt P00746 26-253); experiment: SPR MX96
# T3 construct: also called rhCFD-His
# [8] = target: T4, recombinant human CFD mutant 1 (R157A, R207A), His-tagged (human, UniProt P00746 26-253); experiment: SPR MX96
# T4 construct: positions are linear positions in the mature protein; also called rhCFD-mut1-His; Mut1
# [9] = target: T5, recombinant cynomolgus CFD, His-tagged (cynomolgus); experiment: SPR MX96
# T5 construct: also called rcyCFD-His; recombinant Cyno-CFD
# T1 sequence (P00746 26-253): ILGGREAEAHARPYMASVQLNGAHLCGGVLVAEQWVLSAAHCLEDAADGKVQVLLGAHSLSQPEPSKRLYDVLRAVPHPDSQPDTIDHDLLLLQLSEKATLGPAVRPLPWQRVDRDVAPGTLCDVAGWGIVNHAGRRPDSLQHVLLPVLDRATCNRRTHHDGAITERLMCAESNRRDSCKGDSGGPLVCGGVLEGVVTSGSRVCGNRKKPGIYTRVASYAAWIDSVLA
# T3 sequence (P00746 26-253 limits assumed): as the sequence (P00746 26-253) above
# T2 sequence (P00746 26-253): as above
# T4 sequence (P00746 26-253 R182A/R232A limits assumed): as the sequence (P00746 26-253) above, with R157A, R207A counted along it
binder,measurement,setting,value
"KCD119 TAF heavy chain / KCD119 TAF light chain (antibody, V domains shown, humanized full IgG captured on protein A; also called TAF KCD119) VH: EVQLVESGGGLVQPGGSLRLSCAASGYTFTDYYMNWVRQAPGKGLEWIGDINPNTGDTSYNADFKRRFTFSLDTSKSTAYLQMNSLRAEDTAVYYCTREGPSFAYWGQGTLVTVSS VL: DIQLTQSPSSLSASVGDRVTITCRSSQTIVHSNGDTYLEWYQQKPGKAPNLLIYKVSNRFSGVPSRFSGSGSGTDFTLTISSLQPEDFATYYCFQGSHVPPTFGQGTKVEIK",Kd,[1],0.23 nM
same,koff,[1],0.00103 s⁻¹
same,kon,[1],4.46e+06 M⁻¹ s⁻¹
"KCD119 TAF / KCD119 TAF (antibody, V domains shown, Humanized KCD119; tested as full antibody captured on protein A; also called D19 TAF) VH: EVQLVESGGGLVQPGGSLRLSCAASGYTFTDYYMNWVRQAPGKGLEWIGDINPNTGDTSYNADFKRRFTFSLDTSKSTAYLQMNSLRAEDTAVYYCTREGPSFAYWGQGTLVTVSS VL: DIQLTQSPSSLSASVGDRVTITCRSSQTIVHSNGDTYLEWYQQKPGKAPNLLIYKVSNRFSGVPSRFSGSGSGTDFTLTISSLQPEDFATYYCFQGSHVPPTFGQGTKVEIK",Kd,[2],0.499 nM
same,koff,[2],0.00628 s⁻¹
same,kon,[2],1.26e+07 M⁻¹ s⁻¹
same,Kd,[3],0.113 nM
same,koff,[3],0.00155 s⁻¹
same,kon,[3],1.38e+07 M⁻¹ s⁻¹
same,Kd,[4],0.113 nM
same,koff,[4],0.00155 s⁻¹
same,kon,[4],1.38e+07 M⁻¹ s⁻¹
same,Kd,[5],0.499 nM
same,koff,[5],0.00628 s⁻¹
same,kon,[5],1.26e+07 M⁻¹ s⁻¹
"31S34I54I59D84S / 54G101V (antibody, V domains shown, KCD119 TAF variant; full antibody captured on protein A; also called 31S34I54I59D845 / 54G101V; 3I534I54I59D84S / 54G101V) VH: EVQLVESGGGLVQPGGSLRLSCAASGYTFTSYYINWVRQAPGKGLEWIGDINPITGDTDYNADFKRRFTFSLDTSKSTAYLQMSSLRAEDTAVYYCTREGPSFAYWGQGTLVTVSS VL: DIQLTQSPSSLSASVGDRVTITCRSSQTIVHSNGDTYLEWYQQKPGKAPNLLIGKVSNRFSGVPSRFSGSGSGTDFTLTISSLQPEDFATYYCFQGSHVPVTFGQGTKVEIK",Kd,[2],0.00611 nM
same,koff,[2],7.36e-05 s⁻¹
same,kon,[2],1.21e+07 M⁻¹ s⁻¹
same,kon,[3],4.42e+06 M⁻¹ s⁻¹
same,kon,[4],4.42e+06 M⁻¹ s⁻¹
same,Kd,[5],0.00611 nM
same,koff,[5],7.36e-05 s⁻¹
same,kon,[5],1.21e+07 M⁻¹ s⁻¹
"54V heavy chain / KCD119 TAF light chain (antibody, V domains shown, IgG; also called 54V/wt) VH: EVQLVESGGGLVQPGGSLRLSCAASGYTFTDYYMNWVRQAPGKGLEWIGDINPVTGDTSYNADFKRRFTFSLDTSKSTAYLQMNSLRAEDTAVYYCTREGPSFAYWGQGTLVTVSS VL: DIQLTQSPSSLSASVGDRVTITCRSSQTIVHSNGDTYLEWYQQKPGKAPNLLIYKVSNRFSGVPSRFSGSGSGTDFTLTISSLQPEDFATYYCFQGSHVPPTFGQGTKVEIK",Kd,[1],0.153 nM
same,koff,[1],0.000627 s⁻¹
same,kon,[1],4.09e+06 M⁻¹ s⁻¹
"54V heavy chain / 101V light chain (antibody, V domains shown, IgG) VH: EVQLVESGGGLVQPGGSLRLSCAASGYTFTDYYMNWVRQAPGKGLEWIGDINPVTGDTSYNADFKRRFTFSLDTSKSTAYLQMNSLRAEDTAVYYCTREGPSFAYWGQGTLVTVSS VL: DIQLTQSPSSLSASVGDRVTITCRSSQTIVHSNGDTYLEWYQQKPGKAPNLLIYKVSNRFSGVPSRFSGSGSGTDFTLTISSLQPEDFATYYCFQGSHVPVTFGQGTKVEIK",Kd,[1],0.0949 nM
same,koff,[1],0.000463 s⁻¹
same,kon,[1],4.88e+06 M⁻¹ s⁻¹
"54V59D heavy chain / 101V light chain (antibody, V domains shown, IgG) VH: EVQLVESGGGLVQPGGSLRLSCAASGYTFTDYYMNWVRQAPGKGLEWIGDINPVTGDTDYNADFKRRFTFSLDTSKSTAYLQMNSLRAEDTAVYYCTREGPSFAYWGQGTLVTVSS VL: DIQLTQSPSSLSASVGDRVTITCRSSQTIVHSNGDTYLEWYQQKPGKAPNLLIYKVSNRFSGVPSRFSGSGSGTDFTLTISSLQPEDFATYYCFQGSHVPVTFGQGTKVEIK",Kd,[1],0.0321 nM
same,koff,[1],0.000213 s⁻¹
same,kon,[1],6.64e+06 M⁻¹ s⁻¹
"54V59D heavy chain / KCD119 TAF light chain (antibody, V domains shown, IgG) VH: EVQLVESGGGLVQPGGSLRLSCAASGYTFTDYYMNWVRQAPGKGLEWIGDINPVTGDTDYNADFKRRFTFSLDTSKSTAYLQMNSLRAEDTAVYYCTREGPSFAYWGQGTLVTVSS VL: DIQLTQSPSSLSASVGDRVTITCRSSQTIVHSNGDTYLEWYQQKPGKAPNLLIYKVSNRFSGVPSRFSGSGSGTDFTLTISSLQPEDFATYYCFQGSHVPPTFGQGTKVEIK",Kd,[1],0.0526 nM
same,koff,[1],0.000307 s⁻¹
same,kon,[1],5.85e+06 M⁻¹ s⁻¹
"KCD018 (antibody, V domains shown) VH: QVQLQQSAAELARPGASVKMSCKASGYTFTSYTVHWVKQRPGQGLEWIGYINPSSGFTDYNQKFKDKTTLTADISSSTAYIQLSSLTSEDSAVYYCARRGVNWSWFAYWGQGTLVTVSA VL: NIMMTQSPSSLAVSAGEKVTMSCKSSQSVLYSSNQKNYLAWYQQKPGQSPQLLIYWASTRESGVPERFTGSGSGTDFTLTISSVQAEDLAVYYCHQYLSSWTFGGGTKLEIK",Kd,[6],41 nM
same,Kd,[7],41 nM
same,Kd,[8],99 nM
same,Kd,[9],52 nM
"KCD017 (antibody, V domains shown) VH: DVQLQESGPDLVKPSQSLSLTCTVTDYSITSGYSWHWIRQFPGNKLEWLGYIHSSGNTNYNPSLKSRFSITRDTSKNQFFLQLNSVTSEDTATYYCALHYYGSSFGWYFDVWGAGTTVTVSS VL: DIVMTQSHKFMSTSVGDRVYITCKASQDVGTAVAWYQQTSGQSPKLLIYWASTRHTGVPDRFTGSGSGTDFTLTLSNVQSEDLADYFCQQYTSYPLTFGAGTKLELK",Kd,[6],7.8 nM
same,Kd,[7],13 nM
same,Kd,[8],10 nM
same,Kd,[9],11 nM
"KCD065 (antibody, V domains shown) VH: QVQLQQSGAELARPGASVKMSCKASGYTFTTYTIHWVKQRPGQGLEWIGYINPSSDFTNYNQNFADKATLTADRSSSTAYMQLSSLTSEESAVYYCAIRLGYDRQGWYFDVWGAGTTVTVSS VL: DIVMTQSHKFLSTSLGDRVSITCKASQDVGSAVAWYQQKPGQSPDLLIYWTFTRHTGVPDRFTGSRSGTDFTLTISNVQSGDLADYFCQQYSNYPLTFGGGTKLEIK",Kd,[6],3.3 nM
same,Kd,[7],17 nM
same,Kd,[8],25 nM
same,Kd,[9],25 nM
"KCD050 (antibody, V domains shown) VH: QVQLKESGPGLVAPSQSLSITCTVSGFSLNSYGVQWVRQPPGQGLEWLVVIWRDGTITYNSALKSRLSINKDNSKSQVFLKMNSLQTDDTAMYYCGRTSHYGNFNYYVMDYWGQGTAVTVSS VL: not shown",Kd,[6],2 nM
same,Kd,[7],3.1 nM
same,Kd,[8],1.9 nM
same,Kd,[9],8.2 nM
"KCD052 (antibody, V domains shown) VH: QVQLKESGPGLVAPSQSLSITCTVSGFSLNSYGVQWVRQPPGQGLEWLGVIWRDGSITYNSALKSRLSIRKDNSKSQVFLKMNSLQTDDTAMYYCGRTSHYGNYNYYVMDYWGQGTAVTVSS VL: not shown",Kd,[6],3.1 nM
same,Kd,[7],3.7 nM
same,Kd,[8],2.5 nM
same,Kd,[9],10 nM
"KCD038 (antibody, V domains shown) VH: EVQLQQSGPELVKPGTSMKISCKASGYSFADYTMNWVKQSHGKSLEWIGLINPYNGGTSYNQKFMGKATLTVDKSSSTAYMELLSLTSEDSAVYYCARWGTYSHNYDYAMDYWGQGTSVTVSS VL: DVVMTQTPLSLPVSLGDQASISCRSSQSLVHSNGNTYLYWYFQKPGQSPKFLIYKVSNRFSGISDRFSGSGSGTDFTLKISRVEAEDLGVYFCSQSTHVPPFTFGSGTKLEIK",Kd,[6],37 nM
same,Kd,[7],48 nM
same,Kd,[8],84 nM
same,Kd,[9],45 nM
"KCD039 (antibody, V domains shown) VH: EVQLQQSGPEMVKPGASMKISCKASGYSFADYTLNWVKQSHGKSLEWIGLINPYNGGTSYNQKFMGKATLTVDKSSSTAYMELLSLTSEDSAVYYCTRWGTYSHNYDYAMDYWGQGTSVTVSS VL: DVVMTQTPLSLSVSLGDQASISCRSSQSLVHSNGNTYLYWYLQKPGQSPKLLIYKVSNRFSGITDRFSGSGSGTDFTLKISRVEAEDLGVYFCSQSTHVPPFTFGSGTKLEIK",Kd,[6],53 nM
same,Kd,[7],43 nM
same,Kd,[8],70 nM
same,Kd,[9],39 nM
"KCD008 (antibody, V domains shown) VH: EVQLQQSGPELVKAGASVKMSCTASGFNIKDTYMHWVKQRPEQGLAWIGRIDPANGNIKYDPKFQGKATITADTSSNTAYLQLSSLTSDDTAVYYCTSAMDYWGQGTSVTVSS VL: QIVLTQSPEIMSASPGEKVTMTCSARSSVSYMYWYQQKPGSSPRLLIYDTSNLASGVPVRFSGSGSGTSYSLTISRMETEDAATYYCQQWSTYPFTFGSGTKLEIK",Kd,[6],4.4 nM
same,Kd,[7],3.2 nM
same,Kd,[8],5.7 nM
same,Kd,[9],66 nM
"KCD210 (antibody, V domains shown) VH: EVQLQQSGPVLVKPGASVTMSCKASGYTFTEYYMNWVKQSHGKSLDWIGVINPYSGGTSYKQKFKDKATLTVDKSSSTAYMELNGLTSEDSAVYFCVRGGLRRNYFDYWGQGTTLTVSS VL: EIVLTQSPALMTASPGEKVTITCSVSSSISSTNLHWYQQKSGTSPKPWIFGTSNLASGVPVRFSGSGSGTSYSLTISNMEAEDAATYYCQQWNSYPFTFGTGTKLEIK",Kd,[6],3.5 nM
same,Kd,[7],2.9 nM
same,Kd,[8],2.9 nM
same,Kd,[9],3.6 nM
"KCD135 (antibody, V domains shown) VH: EVQLQQSGPELVKPGASVRMSCKASGYIFTDYSIHWVKQSHGKSLEWIGYINPNNGGTSYNQKFKGKATLTVNKSSTTAYMELRSLTSEDSAVYFCARDTTIVGDYWGQGTTLTVSS VL: DIVMTQSQKFMSTSVGDRVSVTCKASQHVGTNVVWYQQKPGQSPKALIYSASYRYSGVPDRFSGSGSGTDFTLTISNVQSEDLAEYFCQQFNSYPLTFGGGTKLEIK",Kd,[6],21 nM
same,Kd,[7],13 nM
same,Kd,[8],15 nM
same,Kd,[9],18 nM
